The assay addresses T1, human epidermal growth factor 2 (HER2) receptor (human (endogenous in MDA-MB-453, …, UniProt P04626 23-1255)).
T1 construct: HER2 (ErbB2), 185 kDa transmembrane glycoprotein, endogenous on human breast cancer cell lines; No isolated HER2 was tested; also called ErbB2; source: endogenous, on MDA-MB-453 breast cancer cells (highest HER2 expression); also on MDA-MB-435 Br and MCF-7 cells (medium HER2 expression)
Put plainly: flow cytometry on cells; MDA-MB-453 cells incubated with CF-labelled peptides, 12.5 µM, 3 h, 37 °C, 5 min trypsinization; read-out percentage of CF+ live cells and mean fluorescence intensity. To be noted: one partner purified. In general terms: In flow cytometry, cells or beads pass a laser one at a time.

B1: CF-KAAYSLGYYNPT-NH2 (peptide)
peptide: {5(6)‑carboxyfluorescein}-KAAYSLGYYNPT-NH2
notes: combined peptide: KAAYSL followed by GYYNPT; also called cP(AA)_P(YY); cP(AA)_(YY); source: synthetic peptide (Fmoc/tBu solid phase, RP-HPLC purified)
As for B1, the “fold increase of mean fluorescence intensity over P(AA)” value was ~10 fold.

These data come from publication PMC7072344, “Structure–Activity Relationship of HER2 Receptor Targeting Peptide and Its Derivatives in Targeted Tumor Therapy” (Biomolecules, 2020).
